This series concerns the molecule itself. As to the kind of experiment: SEC-MALS.

Here are results for one protein from paper PMC7863765 (Journal of Molecular Biology, 2021).

As usually defined, the stoichiometry N is the number of molecules, sites or subunits per partner or assembly.

B1: untagged full-length human 14-3-3γ (natural protein, UniProt P61981 1-247, looked up)
chain: MVDREQLVQKARLAEQAERYDDMAAAMKNVTELNEPLSNEERNLLSVAYKNVVGARRSSWRVISSIEQKTSADGNEKKIEMVRAYREKIEKELEAVCQDVLSLLDNYLIKNCSETQYESKVFYLKMKGDYYRYLAEVATGEKRATVVESSEKAYSEAHEISKEHMQPTHPIRLGLALNYSVFYYEIQNAPEQACHLAKTAFDDAIAELDTLNEDSYKDSTLIMQLLRDNLTLWTSDQQDDDGGEGNN
notes: human 14-3-3 protein gamma, full length, untagged
Consider B1, for which the “stoichiometry N” value came to 2.
